{"source": "patent US20030166232A1", "about": "(LUDWIG INSTITUTE FOR CANCER RESEARCH, published 2003)", "binders": {"B1": {"name": "GST-PDZ 3 (glutathione S-transferase fused to PTPL1 residues 1469-1579) (other)", "chain": "VKDYSFVTEENTFEVKLFKNSSGLGFSFSREDNLIPEQINASIVRVKKLFAGQPAAESGKIDVGDVILKVNGASLKGLSQQEVISALRGTAPEVFLLLCRPPPGVLPEIDT", "notes": "not shown: glutathione S-transferase (GST) encoded by the expression vector pGEX1 lambda T (Pharmacia)"}, "B2": {"name": "PARG (PTPL1 Associated RhoGAP), the 150 kDa component from PC-3 cell lysate (other)", "chain": "MIAHKQKKTKKKRAWASGQLSTDITTSEMGLKSLSSNSIFDPDYIKELVNDIRKFSHILLYLKEAIFSDCFKEVIHIRLEELLRVLKSIMNKHQNLNSVDLQNAAEMLTAKVKAVNFTEVNEENKNDLFQEVFSSIETLAFTFGNILTNFLMGDVGNDSFLRLPVSRETKSFENVSVESVDSSSEKGNFSPLELDNVLLKNTDSIELALSYAKTWSKYTKNIVSWVEKKLNLELESTRNMVKLAEATRTNIGIQEFMPLQSLFTNALLNDIESSHLLQQTIAALQANKFVQPLLGRKNEMEKQRKEIKELWKQEQNKMLEAENALKKAKLLCMQRQDEYEKAKSSMFRAEEEHLSSSGGLAKNLNKQLEKKRRLEEEALQKVEEADELYKVCVTNVEERRNDVENTKREILAQLRTLVFQCDLTLKAVTVNLFHMQHLQAASLADRLQSLCGSAKLYDPGQEYSEFVKATNSTEEEKVDGNVNKHLNSSQPSGFGPANSLEDVVRLPDSSNKIEEDRCSNSADITGPSFIRSWTFGMFSDSESTGGSSESRSLDSESISPGDFHRKLPRTPSSGTMSSADDLDEREPPSPSETGPNSLGTFKKTLMSKAALTHKFRKLRSPTKCRDCEGIVVFQGVECEECLLVCHRKCLENLVIICGHQKLPGKIHLFGAEFTLVAKKEPDGIPFILKICASEIENRALCLQGIYRVCGNKIKTEKLCLALENGMHLVDISEFSSHDICDVLKLYLRQLPEPFILFRLYKEFIDLAKEIQHVNEEQETKKNSLEDKKWPNMCIEINRILLKSKDLLRQLPASNFNSLHFLIVHLKRVVDHAEENKMNSKNLGVIFGPSLIRPRPQTAPITISSLAEYSNQARLVEFLITYSQKIFDGSLQPQDVMCSIGVVDQGCFPKPLLSPEERDIERSMKSLFFSSKEDIHTSESESKIFERATSFEESERKQNALGKCDACLSDKAQLLLDQEAESASQKIEDGKAPKPLSLKSDRSTNNVERHTPRTKIRPVSLPVDRLLLASPPNERNGRNMGNVNLDKFCKNPAFEGVNRKDAATTVCSKFNGFDQQTLQKIQDKQYEQNSLTAKTTMIMPSALQEKGVTTSLQISGDHSINATQPSKPYAEPVRSVREASERRSSDSYPLAPVRAPRTLQPQHWTTFYKPHAPIISIRGNEEKPASPSAACPPGTDHDPHGLVVKSMPDPDKASACPGQATGQPKEDSEELGLPDVNPMCQRPRLKRMQQFEDLEDEIPQFV", "notes": "In the pull-down it was the endogenous, 35S-labelled 150 kDa protein in PC-3 cell lysate; also called 150 kDa protein"}, "B3": {"name": "GST-PDZ 1 (glutathione S-transferase fused to PTPL1 residues 1066-1166) (other)", "chain": "SSPEREITLVNLKKDAKYGLGFQIIGGEKMGRLDLGIFISSVAPGGPADFHGCLKPGDRLISVNSVSLEGVSHHAAIEILQNAPEDVTLVISQPKEKISKV", "notes": "as for B1"}}, "test_in_all_cases": "GST pull-down from 35S-labelled PC-3 cell lysate, SDS-gel, fluorography", "key": {"[1]": {"target": "B2", "experimental": "(§1) PC-3 cells were obtained from American Type Culture Collection (Rockville, Md.) and cultured as described (Saras et al., 1994). Metabolic labeling of PC-3 cells was performed for 4 h in methionine-and cysteine-free MCDB 104 medium (Gibco/Life Technologies, Gaithersburg, Md.) with […] of ³⁵S-methionine and ³⁵S-cysteine (in vivo labeling mix; Amersham, Arlington Heights, Ill.). After labeling, the cells were solubilized in buffer containing 20 mM Tris-HCI, pH 7.4,150 mM NaCl, 10 mM EDTA, 0.5% Triton X-100, 0.5% deoxycholate, 1 mM dithiothreitol, 1.5% Trasylol (Bayer, Germany) and 1 mM phenylmethylsulfonyl fluoride (Sigma, St. Louis, Mo.). After 15 min on ice, cell debris was removed by centrifugation. Samples (1 ml) were then incubated for 1.5 h at 4° C. with 10 μg of GST-PDZ fusion proteins bound to glutathione-Sepharose 4B beads (Pharmacia). The beads were pelleted and washed four times with solubilization buffer. The protein complexes were eluted by boiling for 5 min in SDS-sample buffer (100 mM Tris-HCI, pH 8.8, 0.01% bromophenol blue, 36% glycerol, 4% SDS, 10 mM dithiothreitol) and analyzed by SDS-gel electrophoresis using 5-12% polyacrylamide gels (Blobel and Dobberstein, J. Cell Biol. 67:835-851, 1975). The gel was fixed, incubated with Amplify (Amersham) for 20 min, dried and subjected to fluorography."}, "[2]": {"target": "T1, GST-PDZ 5 (glutathione S-transferase fused to PTPL1 residues 1856-1960) (Homo sapiens (Human), UniProt Q12923 1875-1979)", "T1 construct": "not shown: glutathione S-transferase (GST) encoded by the expression vector pGEX1 lambda T (Pharmacia)", "T1 sequence": "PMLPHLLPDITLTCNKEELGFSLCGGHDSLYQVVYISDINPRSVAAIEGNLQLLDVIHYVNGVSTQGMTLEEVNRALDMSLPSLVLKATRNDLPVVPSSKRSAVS", "experimental": "as §1"}, "[3]": {"target": "T2, GST-PDZ 2-3 (glutathione S-transferase fused to PTPL1 residues 1340-1579) (Homo sapiens (Human), UniProt Q12923 1359-1598)", "T2 construct": "not shown: glutathione S-transferase (GST) encoded by the expression vector pGEX1 lambda T (Pharmacia)", "T2 sequence": "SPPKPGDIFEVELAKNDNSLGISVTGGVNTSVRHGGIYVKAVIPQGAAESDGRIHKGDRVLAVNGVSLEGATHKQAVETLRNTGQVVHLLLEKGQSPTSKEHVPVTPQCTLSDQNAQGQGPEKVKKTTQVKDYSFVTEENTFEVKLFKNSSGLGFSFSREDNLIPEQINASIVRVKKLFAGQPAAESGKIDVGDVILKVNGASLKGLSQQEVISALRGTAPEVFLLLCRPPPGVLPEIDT", "experimental": "as §1"}}}
{"binder": "B1", "values": [{"measurement": "binding result", "setting": "[1]", "value": "no binding (tested: 10 µg of GST-PDZ fusion protein)"}]}
{"binder": "B2", "values": [{"measurement": "binding result", "setting": "[2]", "value": "no binding (tested: 10 µg of GST-PDZ fusion protein)"}, {"measurement": "binding result", "setting": "[3]", "value": "no binding (tested: 10 µg of GST-PDZ fusion protein)"}]}
{"binder": "B3", "values": [{"measurement": "binding result", "setting": "[1]", "value": "no binding (tested: 10 µg of GST-PDZ fusion protein)"}]}
